Series [1] has as its system fibrin. As to conditions: versus t-PA control.
For series [2] the following is noted: removal of sialic acid or chemical modification of carbohydrate; cited from earlier work.

B1: glutamine117 glutamic acid275 t-PA: t-PA Carbohydrate Variant Gln117 Glu275 Equivalent (protein, UniProt P00750 36-562, looked up, variant N117Q R275E)
Tissue-type plasminogen …: SYQVICRDEKTQMIYQQHQSWLRPVLRSNRVEYCWCNSGRAQCHSVPVKSCSEPRCFNGGTCQQALYFSDFVCQCPEGFAGKCCEIDTRATCYEDQGISYRGTWSTAESGAECTNWQSSALAQKPYSGRRPDAIRLGLGNHNYCRNPDRDSKPWCYVFKAGKYSSEFCSTPACSEGNSDCYFGNGSAYRGTHSLTESGASCLPWNSMILIGKVYTAQNPSAQALGLGKHNYCRNPDGDAKPWCHVLKNRRLTWEYCDVPSCSTCGLRQYSQPQFEIKGGLFADIASHPWQAAIFAKHRRSPGERFLCGGILISSCWILSAAHCFQERFPPHHLTVILGRTYRVVPGEEEQKFEVEKYIVHKEFDDDTYDNDIALLQLKSDSSRCAQESSVVRTVCLPPADLQLPDWTECELSGYGKHEALSPFYSERLKEAHVRLYPSSRCTSQHLLNRTVTDNMLCAGDTRSGGPQANLHDACQGDSGGPLVCLNDGRMTLVGIISWGLGCGQKDVPGVYTKVTNYLDWIRDNMRP
As for B1, in series [1], the “fibrin stimulation and specific activity” value was “superior to t-PA control in fibrin stimulation and specific activity”.

B2: ceruloplasmin: ceruloplasmin after removal of sialic acid (protein, UniProt P00450 20-1065, looked up)
Ceruloplasmin: KEKHYYIGIIETTWDYASDHGEKKLISVDTEHSNIYLQNGPDRIGRLYKKALYLQYTDETFRTTIEKPVWLGFLGPIIKAETGDKVYVHLKNLASRPYTFHSHGITYYKEHEGAIYPDNTTDFQRADDKVYPGEQYTYMLLATEEQSPGEGDGNCVTRIYHSHIDAPKDIASGLIGPLIICKKDSLDKEKEKHIDREFVVMFSVVDENFSWYLEDNIKTYCSEPEKVDKDNEDFQESNRMYSVNGYTFGSLPGLSMCAEDRVKWYLFGMGNEVDVHAAFFHGQALTNKNYRIDTINLFPATLFDAYMVAQNPGEWMLSCQNLNHLKAGLQAFFQVQECNKSSSKDNIRGKHVRHYYIAAEEIIWNYAPSGIDIFTKENLTAPGSDSAVFFEQGTTRIGGSYKKLVYREYTDASFTNRKERGPEEEHLGILGPVIWAEVGDTIRVTFHNKGAYPLSIEPIGVRFNKNNEGTYYSPNYNPQSRSVPPSASHVAPTETFTYEWTVPKEVGPTNADPVCLAKMYYSAVEPTKDIFTGLIGPMKICKKGSLHANGRQKDVDKEFYLFPTVFDENESLLLEDNIRMFTTAPDQVDKEDEDFQESNKMHSMNGFMYGNQPGLTMCKGDSVVWYLFSAGNEADVHGIYFSGNTYLWRGERRDTANLFPQTSLTLHMWPDTEGTFNVECLTTDHYTGGMKQKYTVNQCRRQSEDSTFYLGERTYYIAAVEVEWDYSPQREWEKELHHLQEQNVSNAFLDKGEFYIGSKYKKVVYRQYTDSTFRVPVERKAEEEHLGILGPQLHADVGDKVKIIFKNMATRPYSIHAHGVQTESSTVTPTLPGETLTYVWKIPERSGAGTEDSACIPWAYYSTVDQVKDLYSGLIGPLIVCRRPYLKVFNPRRKLEFALLFLVFDENESWYLDDNIKTYSDHPEKVNKDDEEFIESNKMHAINGRMFGNLQGLTMHVGDEVNWYLMGMGNEIDLHTVHFHGHSFQYKHRGVYSSDVFDIFPGTYQTLEMFPRTPGIWLLHCHVTDHIHAGMETTYTVLQNEDTKSG
modifications: desialylated
notes: ceruloplasmin after removal of sialic acid
Take B2: the half-life change entry in series [2] was “decreases its half-life dramatically”.
